From PMC6318328 (2019) come the findings set out here.

Where no end group is shown, it is not given here. [ ]: non-standard residue; d: D form. Lys(Me3) = C[N+](C)(C)CCCC[C@H](N)C(=O)O; Arg(Me) = CNC(=N)NCCC[C@H](N)C(=O)O

Test in all cases: ITC
(ITC needs no label: the signal is the heat of the interaction.)

One experiment deals with T1, MLL3 ePHD6 E1097A (human, UniProt Q8NEZ4 1055-1144, E1097A).
T1 sequence: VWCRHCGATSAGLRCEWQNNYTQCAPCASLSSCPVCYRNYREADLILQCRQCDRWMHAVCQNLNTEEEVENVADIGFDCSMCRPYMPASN

For the next experiment, the target named is T2, MLL3 ePHD6 I1100L (human, UniProt Q8NEZ4 1055-1144, I1100 of MLL3 to leucine).
T2 sequence: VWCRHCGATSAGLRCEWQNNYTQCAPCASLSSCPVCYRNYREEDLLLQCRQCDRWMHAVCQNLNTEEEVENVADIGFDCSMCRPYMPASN

The next experiment concerns the target T3, MLL4_(ePHD6)_(1475–1564) (human, UniProt O14686 1475-1564).
T3 chain: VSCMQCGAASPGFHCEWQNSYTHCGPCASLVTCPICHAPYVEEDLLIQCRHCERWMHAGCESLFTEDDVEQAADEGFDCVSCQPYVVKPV

Another experiment has as its target T4, MLL3_(ePHD6)_(1055–1144) (human, UniProt Q8NEZ4 1055-1144).
T4 chain: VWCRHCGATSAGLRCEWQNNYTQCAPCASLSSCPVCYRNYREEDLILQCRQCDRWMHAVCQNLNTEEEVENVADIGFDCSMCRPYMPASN

As for GKGGAKRHRKV [histone H4 peptide H4_(11–21)], in the experiment with MLL3 ePHD6 E1097A, the Kd worked out at 65 µM.
With GKGGA[Lys(Me3)]RHRKV [H4K16me3 peptide], the Kd with MLL3 ePHD6 I1100L came to 34 µM; with MLL4_(ePHD6)_(1475–1564) it was 14 µM.
Consider GKGGAK[Arg(Me)]HRKV [histone H4 peptide monomethylated at R17], for which the Kd with MLL4_(ePHD6)_(1475–1564) is 70 µM; in the experiment with MLL3_(ePHD6)_(1055–1144) it was 113 µM.

Usually Kd stands for the constant that tells how readily two partners part at equilibrium. Lower therefore signals a tighter complex.
